Values of other authors in publication PMC6690345.

Biological target: integrin αIIbβ3 (Homo sapiens) (UniProt P08514)
Assay: SPR

Kd [µM]	Substance
21	ERp5 (from UniProt Q15084)
1	PDI (from UniProt P07237)
